Residue numbers refer to the chain shown, from its start. In names and notes the source's numbering stands.
B1: GST-LMM, wild type (light meromyosin of human non-muscle myosin 2A heavy chain, residues 1212-1960) (domain or fragment, UniProt P35579 1212-1960, looked up)
chain: KANLEKAKQTLENERGELANEVKVLLQGKGDSEHKRKKVEAQLQELQVKFNEGERVRTELADKVTKLQVELDNVTGLLSQSDSKSSKLTKDFSALESQLQDTQELLQEENRQKLSLSTKLKQVEDEKNSFREQLEEEEEAKHNLEKQIATLHAQVADMKKKMEDSVGCLETAEEVKRKLQKDLEGLSQRHEEKVAAYDKLEKTKTRLQQELDDLLVDLDHQRQSACNLEKKQKKFDQLLAEEKTISAKYAEERDRAEAEAREKETKALSLARALEEAMEQKAELERLNKQFRTEMEDLMSSKDDVGKSVHELEKSKRALEQQVEEMKTQLEELEDELQATEDAKLRLEVNLQAMKAQFERDLQGRDEQSEEKKKQLVRQVREMEAELEDERKQRSMAVAARKKLEMDLKDLEAHIDSANKNRDEAIKQLRKLQAQMKDCMRELDDTRASREEILAQAKENEKKLKSMEAEMIQLQEELAAAERAKRQAQQERDELADEIANSSGKGALALEEKRRLEARIAQLEEELEEEQGNTELINDRLKKANLQIDQINTDLNLERSHAQKNENARQQLERQNKELKVKLQEMEGTVKSKYKASITALEAKIAQLEEQLDNETKERQAACKQVRRTEKKLKDVLLQVDDERRNAEQYKDQADKASTRLKQLKRQLEEAEEEAQRANASRRKLQRELEDATETADAMNREVSSLKNKLRRGDLPFVVPRRMARKGAGDGSDEEVDGKADGAEAKPAE
notes: pGEX-6P-1 adds GST and a PreScission site at the N-terminus; GST kept for EM; also called WT GST-LMM; source: E. coli Rosetta 2, purified (Glutathione Sepharose 4B); not shown: GST, N-terminal, kept
B2: GST-LMM D1447H (domain or fragment, human, UniProt P35579 1212-1960, looked up)
chain: B1 chain with D236H
notes: MYH9 disease mutation; source: E. coli Rosetta 2, purified (Glutathione Sepharose 4B); not shown: GST, N-terminal, kept
B3: GST-LMM D1424G (domain or fragment, human, UniProt P35579 1212-1960, looked up)
chain: B1 chain with D213G
notes: as for B2
B4: GST-LMM D1424N (domain or fragment, human, UniProt P35579 1212-1960, looked up)
chain: B1 chain with D213N
notes: as for B2
B5: GST-LMM V1516M (domain or fragment, human, UniProt P35579 1212-1960, looked up)
chain: B1 chain with V305M
notes: MYH9 disease mutation; also called V1615M [sic]; source: E. coli Rosetta 2, purified (Glutathione Sepharose 4B); not shown: GST, N-terminal, kept
B6: GST-LMM E1841K (domain or fragment, human, UniProt P35579 1212-1960, looked up)
chain: B1 chain with E630K
notes: MYH9 disease mutation; also called E1814K [sic]; source: E. coli Rosetta 2, purified (Glutathione Sepharose 4B); not shown: GST, N-terminal, kept
B7: GST-LMM D1447G (domain or fragment, human, UniProt P35579 1212-1960, looked up)
chain: B1 chain with D236G
notes: as for B2

Biological target: the molecule itself
Test: negative stain electron microscopy of filaments; self-assembly into filaments on dilution into low-salt buffer (10 mM phosphate, pH 7.4, 150 mM NaCl, 0.5 mM TCEP), on ice, 200 to 500 nM protein; stained with 1% uranyl acetate

Binding result, binds:
B1
B2
B3
B4
B5
B6
B7
